In patent US20250340623A1:

What was measured:
[1] = biological target: alpha-synuclein fibrils, P37840; experiment: SPR, captured mAb; settings: remark: other sources report otherwise
[2] = biological target: monomeric alpha-synuclein, P37840; experiment: SPR, captured mAb; settings: remark: other sources report otherwise

| Binder | Kd [1] | koff [1] | kon [1] | Kd [2] | koff [2] | kon [2] |
| --- | --- | --- | --- | --- | --- | --- |
| ACI-7067-1102G3-Ab1 (antibody, V domains shown) VH: EVKLEESGGGLVQPGGSMKLSCAASGFTFSDAWMNWVRQSPEKGLEWVAEIRNKAHNHATYYAESVKGRFTISGDDSKSSVYLQMNNLRAEDTGIYYCTIYSYWGQGTLVTVSA VL: SIVMTQTPKFLLVSAGDRVTITCKASQSVTKDVAWYQQKPGQSPKLLIYSTSNRYSGVPDRFTGSGYGTDFTFTINTVQTEDLAVYFCQQDYRIPYTFGGGTKLEIK | 30.6 nM | 0.00135 s⁻¹ | 46000 M⁻¹ s⁻¹ | 8 nM | 0.00103 s⁻¹ | 129000 M⁻¹ s⁻¹ |
| ACI-7079-2506E2-Ab2 (antibody, V domains shown) VH: QVQLQQSGPELVRPGASVKISCKASGYAFSNSWMNWVKQRPGKGLEWIGRIFPGDGDTYYDGKFKGKVKLTTDKFSNTAYMQLRSLTSEDSAVYFCARWGGTNDEWFAHWGQGTLVTVSV VL: DIVLTQSPASLTVSLGQRATISCRASQSVSTSRNSYMHWYQQKPRQPPKLLIKYASNLESGVPARFSGSGSGADFTLNIHPVEEEDTATYYCQHSWDIPLTFGTGTKLELS | 91.9 nM | 0.000476 s⁻¹ | 5190 M⁻¹ s⁻¹ | 7.6 nM | 0.000615 s⁻¹ | 80900 M⁻¹ s⁻¹ |
| ACI-7079-2507B3-Ab1 (antibody, V domains shown) VH: EVQLVESGGGLVQPKGSLKVSCAASGFTFKTYAMHWVRQAPGKGLEWVARIRSENSNFAKYYADSVKDRFTISRDDSQSMLYLQMHTLKTEDTAIYYCVRGYNGSSLDYWGQGTTLTVSS VL: QIVLTQSPAIMSAFPGERVTMTCSASSSVNYMHWYQQKSGTSPKRWIYDTSKLASGVPARFSGGGSGTSYSLTISNMEAEDAATYYCQQWRSNPPTFGGGTKLEIK | 34.9 nM | 0.000668 s⁻¹ | 19100 M⁻¹ s⁻¹ | 2.6 nM | 0.000642 s⁻¹ | 245000 M⁻¹ s⁻¹ |
| ACI-7079-2511B3-Ab3 (antibody, V domains shown) VH: DVQLQESGPGLVKPSQSLSLTCSVTGFSITSYYYWNWIRQFPGNKLEWMAYISYDGSNNYNPSLKNRISITRDTSKNQFFLKLNSVTTEDTATYYCTRGDWDWGQGTLVTVSA VL: not shown | 29.5 nM | 0.000312 s⁻¹ | 10600 M⁻¹ s⁻¹ | 6.3 nM | 0.000583 s⁻¹ | 92800 M⁻¹ s⁻¹ |
| ACI-7079-2602G4-Ab4 (antibody, V domains shown) VH: EVQLVESGGGLVQPKGSLKLSCAASGFTFKTYAMHWVRQAPGKGLEWVARIRSKGSDYATYYADSVKDRFTISRDDSQSMLYLQMNNLKTEDTAMYFCVRGGADSWFAYWGQGTLVTVST VL: QIVLTQSPAIMSASPGERITMTCTASSSVSYMHWYQQKSGTSPKRWIYDTSKLASGVPARFSGSGSGASYTLTISSMEAEDAATYYCQQWNRNPPTFGGGTQLAIK | 18.9 nM | 0.000234 s⁻¹ | 12400 M⁻¹ s⁻¹ | 3.9 nM | 0.000867 s⁻¹ | 223000 M⁻¹ s⁻¹ |
| ACI-7067-1106A8-Ab2 (antibody, V domains shown) VH: EVQLVESGGGLVQPKGSLKLSCAASGFTFNTYAMHWVRQAPGKGLEWVARIRSKGSNYATNYADSVKDRFTISRDDSQSMLYLQMNNLKTEDTAMYYCVRGHGSSYFSYWGQGTLVTVSA VL: QIVLTQSPAIMSASPGEKVTMTCSASSSVSYMHWYQQKSGTSPKRWIYDTSNLASGVPARFSGSGSGTSYSLTISSMEAEDAATYYCQQWNSHPPTFGAGTKLELK | 25 nM | 0.00721 s⁻¹ | 284000 M⁻¹ s⁻¹ | 23.2 nM | 0.005 s⁻¹ | 218000 M⁻¹ s⁻¹ |
| ACI-7079-2603C1-Ab3 (antibody, V domains shown) VH: QVQLQQPGADLVKPGASVKLSCKASGYTFTSYWMQWTKQRPGQGLEWIGEIDPSDSYANYNQKFKGKATLTVDKYSSTAYMQLNSLTSEDSAVYYCALYDGPSYWGQGTLVTVS VL: ENVLTQSPAIMSASPGEKVTMTCSAGSSVSYMHWFQQKSSTSPKLWIYDTSKLPSGVPGRFSGSGSGNSYSLTISSMEAEDVATYYCFQGSGYPYTFGGGTKLEIK | 40.3 nM | 51.7 s⁻¹ | 1.28e+09 M⁻¹ s⁻¹ | 10.9 nM | 6.06 s⁻¹ | 5.58e+08 M⁻¹ s⁻¹ |
| ACI-7079-2605B3-Ab2 (antibody, V domains shown) VH: EVQLVESGGGLVQPKGSLKLSCAASGFIFKTYAMHWVRQAPGKGLEWVARIRSKGGNYATYFADSVKDRFTISRDDSQNMLYLQVNNLKIEDTAMYFCVRGGNYSWFAYWGQGTLVTVSA VL: QIVLTQSPAIMSASPGEKVTMTCSASSSVTYMHWYQQKSGTSPKRWIYDTSQLASGVPARFSGSGSGTSHSLTISSMETEDAATYYCQQWTRNPPTFGGGTKLAIK | 17.4 nM | 0.000294 s⁻¹ | 16800 M⁻¹ s⁻¹ | 3.9 nM | 0.00109 s⁻¹ | 283000 M⁻¹ s⁻¹ |
| ACI-7079-2606A6-Ab2 (antibody, V domains shown) VH: QVQLQQSGPELVKPGASVKISCKASGFAFSSSWMNWVKQRPGKGLEWVGRIFPGDGDTNYDRKFKDKATLTADKSSSTAYMQLSSLTSEDSAVYFCARWTGGYDWFAYWGQGTLVTVSA VL: DIVLTQSPASLAVSLGQRATISCRASQSVSTSNYNYLHWYQQKPGQPPKLLITYASNLESGVPARFSGSGSGTDFTLNIHPVEEGDTATYYCQHSWEIPLTFGAGTKLELK | 56.2 nM | 0.000862 s⁻¹ | 15400 M⁻¹ s⁻¹ | 4.8 nM | 0.00412 s⁻¹ | 860000 M⁻¹ s⁻¹ |
| ACI-7088-4301H3-Ab2 (antibody, V domains shown) VH: EVQLQQSGPELVKPGASVKISCKASGYTFADYFMNWVKQSHGKSLEWIGDINPNNGGTTYNQKFKGKATLTVDKSSNTAYMELRSLTSEDSAVYYCARGRNYAMDYWGQGTSVTVSS VL: DIVMSQSPSSLAVSAGEKVTMSCKSSQSLLNSRTRKNYLAWYQQKPGQSPKLLIYSASTRESGVPDRFTGSGFGTDFTLTISSVQAEDLAVYYCKQSYDLWTFGGGTKLEIK | 86.5 nM | 0.000898 s⁻¹ | 10400 M⁻¹ s⁻¹ | 119 nM | 0.00329 s⁻¹ | 27600 M⁻¹ s⁻¹ |
| ACI-7067-1107G5-Ab2 (antibody, V domains shown) VH: QVQLQQPGTELVKPGASVKLSCKASGYTFTKYWMHWVKQRPGQGLEWIGNINPNNGDTNYNEKFKSKATLTVDKSSSTAYMQLSSLTSEDSAVYYCAIAMDYWGQGTSVTVSS VL: DIQMTQSPSSLSAFLGERVSLTCRASQDIGNNLNWFQQEPDGTIKRLIYATSSLDSGVPKRFSGSRSGSEYSLTISSLESEDFVDYYCLQFGSSPLTFGAGTKLELK | 16.1 nM | 0.00218 s⁻¹ | 345000 M⁻¹ s⁻¹ | 7.2 nM | 0.00114 s⁻¹ | 158000 M⁻¹ s⁻¹ |
| ACI-7088-4303H6-Ab1 (antibody, V domains shown) VH: EVQLQQSGAELVRPGASVKLSCTASGFNIQDDYMHWVKQRPEQGLEWIGWIDPENGDTEYASKFQGKATLTADTSSNTAYLQLSRLTSEDTAVYYCTTAGSGVQLFDYWGQGTTLTVSA VL: DILMTQSQKFMSTSVGDRVSVTCKASQNVGTNVAWYQQKPGQSPKPLISSASSRYSGVPDRFTGSGSGTDFTLTISNVQSEDLADYFCQQYNRYPLTFGAGTKLELK | 43.7 nM | 0.000636 s⁻¹ | 14600 M⁻¹ s⁻¹ | 195 nM | 0.0067 s⁻¹ | 34400 M⁻¹ s⁻¹ |

The next binders have a lower Kd [1] than those just listed; values first:

| Kd [1] | koff [1] | kon [1] | Kd [2] | koff [2] | kon [2] | Binder |
| --- | --- | --- | --- | --- | --- | --- |
| 8.8 nM | 0.000161 s⁻¹ | 18300 M⁻¹ s⁻¹ | 2.4 nM | 0.00051 s⁻¹ | 210000 M⁻¹ s⁻¹ | ACI-7079-2506F3-Ab1 (antibody, V domains shown) VH: QVQLQQPGAELVKPGASVKLSCKASGYTFTTYWMQWVKQRPGQGLEWIGEIDPSDSYINYNQKFKGKATLTVDTSSSTAFMQLSSLTSEDSAVYYCARGMMDYWGQGTSVTVSS VL: DVLMTQTPLSLPVSLGDQASISCRSSQSIVHSNGNTYLEWYLQKPGQSPKLLIYKVSNRFSGVPDRFSGSGSGTDFTLKISRVEAEDLGVYYCFKGSHVPYTFGGGTKLEIK |
| 13.5 nM | 0.000244 s⁻¹ | 18100 M⁻¹ s⁻¹ | 37.1 nM | 0.0632 s⁻¹ | 1.7e+06 M⁻¹ s⁻¹ | ACI-7088-4303A1-Ab1 (antibody, V domains shown) VH: EVQLQQSGAELVRPGASVKLSCTASGFNIKDDYMHWVKQRPEQGLEWIGWIDPENGDSEYASKFQGKATMTADTSSNTAYLQLSSLTSEDTAVYYCKTWGTAQALFPYWGQGTLVTVSA VL: DIVMTQSQKFMSTSVGDRVSITCKASQNVGTSVGWYQQKAGQSPKLLIHSASNRYTGVPDRFTGSGSGTDFTLTINNMQSEDLADYFCQQYRSYPLTFGAGTKLELK |
| 9.4 nM | 0.000606 s⁻¹ | 64700 M⁻¹ s⁻¹ | 1 nM | 0.00107 s⁻¹ | 1.04e+06 M⁻¹ s⁻¹ | ACI-7088-4303A3-Ab1 (antibody, V domains shown) VH: QVQLQQSGAELVRPGASVTLSCKASGYTFTDYEMHWVKQTPVHGLEWIGVIDPETGGAVQNQKFKGKAILTADNSSSTAYMDLRSLTSEDSAVYNCAMGAALRLAYWGQGTLVTVSS VL: DVLMTQTPLSLPVSLGDQASISCRSSQSIVHSNGNSYLEWYLQKPGQSPKLLIYKVSNRFSGVPDRFSGSGSGTDFTLKINRVEAEDLGVYYCFQGSHVPFTFGSGTKLEIK |
| 8.4 nM | 0.000203 s⁻¹ | 24200 M⁻¹ s⁻¹ | 3.4 nM | 0.0924 s⁻¹ | 2.73e+07 M⁻¹ s⁻¹ | ACI-7088-4305H7-Ab1 (antibody, V domains shown) VH: EVQLQQSGAELVRPGASVKLSCTASGFNIKDDYMHWVKQRPEQGLEWIGWIDPENGDTEYASKFQGKATMIADTSSNTAYLQLSSLTSEDTAVYYCKTWGTTQALFPYWGQGTLVTVSS VL: DIVMTQSQKFMSTSVGDRVSITCKASQNVGTAVGWYQQKAGQSPKLLIHSASNRYTGVPDRFTGSGSGTDFTLTINNMQSEDLADYFCQQYRSYPLTFGAGTKLELK |
| 0.1 nM | 4.37e-06 s⁻¹ | 30600 M⁻¹ s⁻¹ | – | – | – | ACI-8033-5A12-Ab1 (antibody, V domains shown) VH: QVHLKQSGADLVRPGASVKLSCKASGYTFTDYYINWVKQRPGQGLEWIARIYPGSGNTYYNEKFKGRATLSAEKSSTTAYMQLSSLTSEDSAVYFCVVGYYGAWGQGTTLTVSS VL: DVVMTQTPLSLPVSLGDQASISCRSSQSLVHSNGKTHLHWYLQKPGQSPKLLIYKVSNRFSGVPDRFSGSGSGTDFTLKISRVEAEDLGVYFCSQSTHVPWTFGGGTKLEIK |
| 3.7 nM | 6.54e-05 s⁻¹ | 17700 M⁻¹ s⁻¹ | – | – | – | ACI-8033-1G10-Ab1 (antibody, V domains shown) VH: DVQLQESGPGLVKPSQTVFLTCTVTGISITTGNYRWSWIRQFPGNKLEWIGYIYYSGTITYNPSLTSRTTITRDTPKNQFFLEMNSLTAEDTATYYCARIYYGNAMDYWGQGTSVTVSS VL: DVVMTQTPLSLPVSLGDQASISCRSSQSLVHSNGNTYLHWYLQKPGQSPKLLIYKVSNRFSGVPDRFSGSGSGTDFTLKISRVEAEDLGVYFCSQSTHVPHTFGGGTKLEIK |
